{"source": "patent US20110311507", "molecules": {"B1": {"name": "FLAG-tagged murine C196F SIAE (protein)", "chain": "IGFRFASYIDNYMVLQKEPSGAVIWGFGTPGATVTVTLCQGQETIMKKVTSVKEPSNTWMVVLDPMKPGGPFEVMAQQTLGTMNFTLRVHDVLFGDVWLCSGQSNMQMTVSQIFNASKELSDTAAYQSVRIFSVSLIQSEEELDDLTEVDLSWSKPTAGNLGHGNFTYMSAVFWLFGRYLYDTLQYPIGLVSSSWGGTYIEVWSSRRTLKACGVPNTRDERVGQPEIKPMRNECNSEESSCPFRVVPSVRVTGPTRHSVLWNAMIHPLQNMTLKGVVWYQGESNADYNRDLYTCMFPELIEDWRQTFHYGSQGQTDRFFPFGFVQLSSYMLKNSSDYGFPEIRWHQTADFGHVPNPKMPNTFMAVAIDLCDRDSPFGSIHPRDKQTVAYRLHLGARAVAYGEKNLTFQGPLPKKIELLASNGLLNLTYDQEIQVQMQDNKTFEISCCSDRHCKWLPAPVNTFSTQTLILDLNACLGTVVAVRYAWTTWPCEYKQCAVYHTSSMLPAPPFIAQISHRGI"}, "B2": {"name": "FLAG-tagged murine G212R Siae (protein)", "chain": "B1 chain with F173C, G189R"}}, "key": {"[1]": {"biological_target": "T1, V5-tagged wild type murine Siae (UniProt P70665)", "T1 sequence": "B1 chain with F173C"}, "[2]": {"biological_target": "T2, V5-tagged wild type murine Siae, P70665", "T2 chain": "B1 chain with F173C"}}, "note": "Positions count from the first letter of the chain named. Names and notes keep the numbering of the source.", "data": [{"molecule": "FLAG-tagged murine Q335P SIAE", "values": [{"measurement": "enzyme activity of V5 tagged wild type SIAE in co-transfectants, as a function of its protein level", "setting": "[1]", "value": "function in a dominant interfering fashion"}]}, {"molecule": "FLAG-tagged murine F430S Siae", "values": [{"measurement": "enzyme activity of V5-tagged wild type Siae in co-transfectants, as a function of its protein level", "setting": "[1]", "value": "function in a dominant interfering fashion"}]}, {"molecule": "FLAG-tagged murine T338M SIAE", "values": [{"measurement": "enzyme activity of V5 tagged wild type SIAE in co-transfectants, as a function of its protein level", "setting": "[1]", "value": "function in a dominant interfering fashion"}]}, {"molecule": "FLAG-tagged murine Y375C Siae", "values": [{"measurement": "enzyme activity of V5-tagged wild type Siae in co-transfectants, as a function of its protein level", "setting": "[1]", "value": "function in a dominant interfering fashion"}]}, {"molecule": "FLAG-tagged K426N Siae", "values": [{"measurement": "enzyme activity of V5-tagged WT Siae in co-transfectants, as a function of its protein level", "setting": "[1]", "value": "lacks dominant negative activity"}]}, {"molecule": "FLAG-tagged murine R505C Siae", "values": [{"measurement": "enzyme activity of V5-tagged wild type Siae in co-transfectants, as a function of its protein level", "setting": "[1]", "value": "function in a dominant interfering fashion"}]}, {"molecule": "B1", "values": [{"measurement": "enzyme activity of V5 tagged wild type SIAE in co-transfectants, as a function of its protein level", "setting": "[2]", "value": "function in a dominant interfering fashion"}]}, {"molecule": "B2", "values": [{"measurement": "enzyme activity of V5-tagged wild type Siae in co-transfectants, as a function of its protein level", "setting": "[2]", "value": "function in a dominant interfering fashion"}]}]}
